The source of these data is IntAct's records for PubMed 32296183.

B1: Ceroid-lipofuscinosis neuronal protein 6 (Homo sapiens), Q9NWW5 (parent)
chain: MEATRRRQHLGATGGPGAQLGASFLQARHGSVSADEAARTAPFHLDLWFYFTLQNWVLDFGRPIAMLVFPLEWFPLNKPSVGDYFHMAYNVITPFLLLKLIERSPRTLPRSITYVSIIIFIMGASIHLVGDSVNHRLLFSGYQHHLSVRENPIIKNLKPETLIDSFELLYYYDEYLGHCMWYIPFFLILFMYFSGCFTASKAESLIPGPALLLVAPSGLYYWYLVTEGQIFILFIFTFFAMLALVLHQKRKRLFLDSNGLFLFSSFALTLLLVALWVAWLWNDPVLRKKYPGVIYVPEPWAFYTLHVSSRH
partner: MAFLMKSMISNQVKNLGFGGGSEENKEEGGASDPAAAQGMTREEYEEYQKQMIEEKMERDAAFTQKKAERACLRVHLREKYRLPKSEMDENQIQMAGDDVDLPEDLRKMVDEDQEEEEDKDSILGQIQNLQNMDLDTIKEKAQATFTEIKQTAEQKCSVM
B2: Dolichol kinase (Homo sapiens), Q9UPQ8 (parent)
chain: MTRECPSPAPGPGAPLSGSVLAEAAVVFAVVLSIHATVWDRYSWCAVALAVQAFYVQYKWDRLLQQGSAVFQFRMSANSGLLPASMVMPLLGLVMKERCQTAGNPFFERFGIVVAATGMAVALFSSVLALGITRPVPTNTCVILGLAGGVIIYIMKHSLSVGEVIEVLEVLLIFVYLNMILLYLLPRCFTPGEALLVLGGISFVLNQLIKRSLTLVESQGDPVDFFLLVVVVGMVLMGIFFSTLFVFMDSGTWASSIFFHLMTCVLSLGVVLPWLHRLIRRNPLLWLLQFLFQTDTRIYLLAYWSLLATLACLVVLYQNAKRSSSESKKHQAPTIARKYFHLIVVATYIPGIIFDRPLLYVAATVCLAVFIFLEYVRYFRIKPLGHTLRSFLSLFLDERDSGPLILTHIYLLLGMSLPIWLIPRPCTQKGSLGGARALVPYAGVLAVGVGDTVASIFGSTMGEIRWPGTKKTFEGTMTSIFAQIISVALILIFDSGVDLNYSYAWILGSISTVSLLEAYTTQIDNLLLPLYLLILLMA

Variants of B1 are the subject of the first test. Conditions: with cplx4_human CPLX4, Q7Z7G2.
With L47F, the “effect of a mutation on the interaction” value is recorded as “with no effect”.

For R6T, the “effect of a mutation on the interaction” value is listed as “with no effect”.

Variants of B2 are the subject of another test. Conditions: with kca10_human KCNA10, Q16322.
Chain of kca10_human KCNA10, Q16322 (Q16322 whole entry): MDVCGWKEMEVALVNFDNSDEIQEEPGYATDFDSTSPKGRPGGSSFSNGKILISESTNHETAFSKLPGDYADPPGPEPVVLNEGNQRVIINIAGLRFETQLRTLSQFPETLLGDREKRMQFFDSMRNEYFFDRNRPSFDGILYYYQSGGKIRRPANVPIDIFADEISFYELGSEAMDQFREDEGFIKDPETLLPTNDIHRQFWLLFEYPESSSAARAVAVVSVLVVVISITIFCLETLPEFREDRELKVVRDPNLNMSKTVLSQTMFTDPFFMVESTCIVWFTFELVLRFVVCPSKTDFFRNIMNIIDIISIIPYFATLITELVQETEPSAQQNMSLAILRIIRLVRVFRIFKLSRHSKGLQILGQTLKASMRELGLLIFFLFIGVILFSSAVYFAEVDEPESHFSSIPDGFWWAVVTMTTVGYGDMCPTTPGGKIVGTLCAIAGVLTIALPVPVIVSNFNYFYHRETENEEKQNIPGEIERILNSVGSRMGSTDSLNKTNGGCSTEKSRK
As to Y441S, the “effect of a mutation on the interaction” value is reported as “disrupting interaction strength”.

In a further test the parent is B2. Conditions: with kcna6_human KCNA6, P17658.
Chain of kcna6_human KCNA6, P17658 (P17658 whole entry): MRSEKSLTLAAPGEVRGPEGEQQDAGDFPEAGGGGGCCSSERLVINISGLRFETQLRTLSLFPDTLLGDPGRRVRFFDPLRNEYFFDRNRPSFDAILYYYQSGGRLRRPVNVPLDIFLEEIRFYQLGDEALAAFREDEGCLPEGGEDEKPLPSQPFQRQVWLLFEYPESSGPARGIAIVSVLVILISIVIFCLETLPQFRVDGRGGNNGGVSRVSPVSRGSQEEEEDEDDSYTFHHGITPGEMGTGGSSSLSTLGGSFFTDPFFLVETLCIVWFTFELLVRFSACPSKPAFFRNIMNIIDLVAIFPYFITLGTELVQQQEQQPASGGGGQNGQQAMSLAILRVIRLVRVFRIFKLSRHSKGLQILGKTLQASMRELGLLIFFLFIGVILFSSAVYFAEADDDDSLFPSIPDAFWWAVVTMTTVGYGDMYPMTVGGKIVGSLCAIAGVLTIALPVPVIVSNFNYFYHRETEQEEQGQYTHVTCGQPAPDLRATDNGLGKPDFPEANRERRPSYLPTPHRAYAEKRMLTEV
Regarding Y441S, the “effect of a mutation on the interaction” value is recorded as “disrupting interaction strength”.

Another test covers variants of B2. Conditions: with eda_human EDA.
In the case of Y441S, the “effect of a mutation on the interaction” value is given as “disrupting interaction strength”.

The variants in another test derive from B2. Conditions: with apbp2_human APPBP2, Q92624.
Chain of apbp2_human APPBP2, Q92624 (Q92624 whole entry): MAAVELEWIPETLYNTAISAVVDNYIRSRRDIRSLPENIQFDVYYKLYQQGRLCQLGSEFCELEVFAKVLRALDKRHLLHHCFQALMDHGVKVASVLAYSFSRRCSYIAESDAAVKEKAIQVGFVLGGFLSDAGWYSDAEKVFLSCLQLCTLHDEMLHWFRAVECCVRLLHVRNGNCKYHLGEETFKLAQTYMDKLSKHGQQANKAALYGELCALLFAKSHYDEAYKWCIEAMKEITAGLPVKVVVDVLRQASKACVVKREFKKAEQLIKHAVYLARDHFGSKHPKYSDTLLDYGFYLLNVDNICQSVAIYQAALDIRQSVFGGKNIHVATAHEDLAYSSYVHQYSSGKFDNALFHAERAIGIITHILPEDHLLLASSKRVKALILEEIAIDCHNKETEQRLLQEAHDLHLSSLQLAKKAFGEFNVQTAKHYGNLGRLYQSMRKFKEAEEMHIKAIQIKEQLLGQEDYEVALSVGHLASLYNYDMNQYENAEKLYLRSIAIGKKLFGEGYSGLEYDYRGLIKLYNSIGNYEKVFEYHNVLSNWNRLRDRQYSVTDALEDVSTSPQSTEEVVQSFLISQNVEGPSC
Regarding Y441S, the “effect of a mutation on the interaction” value is reported as “disrupting interaction strength”.

Variants of B2 are the subject of a further test. Conditions: with kcna1_human KCNA1, Q09470.
Chain of kcna1_human KCNA1, Q09470 (Q09470 whole entry): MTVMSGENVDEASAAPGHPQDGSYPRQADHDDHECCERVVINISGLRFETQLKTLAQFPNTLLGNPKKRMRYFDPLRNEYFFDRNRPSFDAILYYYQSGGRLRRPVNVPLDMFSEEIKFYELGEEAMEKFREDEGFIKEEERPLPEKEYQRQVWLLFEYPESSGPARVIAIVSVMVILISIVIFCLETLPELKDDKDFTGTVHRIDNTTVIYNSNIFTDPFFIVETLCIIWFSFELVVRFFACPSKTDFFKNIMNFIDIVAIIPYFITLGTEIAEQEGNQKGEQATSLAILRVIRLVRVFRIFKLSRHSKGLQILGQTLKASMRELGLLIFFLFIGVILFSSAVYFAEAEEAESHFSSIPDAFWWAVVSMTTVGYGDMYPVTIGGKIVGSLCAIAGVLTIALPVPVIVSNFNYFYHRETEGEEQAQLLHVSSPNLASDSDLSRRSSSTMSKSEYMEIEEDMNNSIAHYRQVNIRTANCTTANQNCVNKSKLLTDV
Y441S: the “effect of a mutation on the interaction” value was “disrupting interaction strength”.

Variants of B2 are the subject of the next test. Conditions: with ylat2_human SLC7A6, Q92536.
Chain of ylat2_human SLC7A6, Q92536 (Q92536 whole entry): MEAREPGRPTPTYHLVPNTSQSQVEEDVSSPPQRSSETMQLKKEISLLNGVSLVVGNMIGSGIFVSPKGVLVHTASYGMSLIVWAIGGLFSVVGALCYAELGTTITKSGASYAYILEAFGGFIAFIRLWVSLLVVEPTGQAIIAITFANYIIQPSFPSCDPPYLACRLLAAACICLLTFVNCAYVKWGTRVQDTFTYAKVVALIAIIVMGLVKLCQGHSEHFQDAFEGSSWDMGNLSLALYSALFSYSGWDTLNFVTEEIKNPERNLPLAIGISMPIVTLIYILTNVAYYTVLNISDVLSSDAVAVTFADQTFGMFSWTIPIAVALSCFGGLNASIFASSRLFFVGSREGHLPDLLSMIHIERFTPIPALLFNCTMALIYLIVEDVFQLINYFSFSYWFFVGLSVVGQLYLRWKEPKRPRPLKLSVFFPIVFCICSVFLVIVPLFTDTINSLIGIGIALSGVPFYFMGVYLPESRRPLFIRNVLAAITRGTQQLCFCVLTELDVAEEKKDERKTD
In the case of Y441S, the “effect of a mutation on the interaction” value is listed as “with no effect”.

Variants of B2 are the subject of the next test. Conditions: with kca10_human KCNA10, Q16322. The source holds these as a separate data set.
For the variant Y441S, the “effect of a mutation on the interaction” value is “with no effect”.

In the next test the parent is B2. Conditions: with kcna1_human KCNA1, Q09470. The source holds these as a separate data set.
Regarding Y441S, the “effect of a mutation on the interaction” value is listed as “with no effect”.

Another test covers variants of B2. Conditions: with synpr_human SYNPR.
Take Y441S: the “effect of a mutation on the interaction” value is given as “disrupting interaction strength”.

In the next test the parent is B2. Conditions: with tm45b_human TMEM45B.
Y441S: the “effect of a mutation on the interaction” value was “disrupting interaction strength”.

The next test covers variants of B2. Conditions: with cd79a_human CD79A.
Take Y441S: the “effect of a mutation on the interaction” value was “with no effect”.

Another test covers variants of B2. Conditions: with cxa8_human GJA8, P48165.
Chain of cxa8_human GJA8, P48165 (P48165 whole entry): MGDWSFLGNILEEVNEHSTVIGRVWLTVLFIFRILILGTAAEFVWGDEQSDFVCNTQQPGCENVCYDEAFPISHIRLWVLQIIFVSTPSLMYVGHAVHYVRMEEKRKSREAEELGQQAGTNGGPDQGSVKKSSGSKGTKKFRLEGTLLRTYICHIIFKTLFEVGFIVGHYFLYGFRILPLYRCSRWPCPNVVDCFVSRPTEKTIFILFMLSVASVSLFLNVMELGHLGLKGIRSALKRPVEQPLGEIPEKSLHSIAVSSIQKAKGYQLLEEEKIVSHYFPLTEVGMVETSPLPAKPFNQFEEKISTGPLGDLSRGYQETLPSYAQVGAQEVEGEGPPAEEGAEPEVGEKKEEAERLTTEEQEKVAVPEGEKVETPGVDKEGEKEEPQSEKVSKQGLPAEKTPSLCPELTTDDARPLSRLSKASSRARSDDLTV
As for Y441S, the “effect of a mutation on the interaction” value is “with no effect”.
